Columns and labels:
[1] = system: S. epidermidis biofilms; test: S. epidermidis biofilm staining, confocal microscopy; assay type: cell-based, Staphylococcus epidermidis; details: fluorescently labeled antibodies at 5 μg/ml, fixed 20 hr biofilms
Protocol: For antibody labeling, recombinantly expressed antibodies were labeled with fluorescent dyes using Invitrogen antibody dye labeling kits. Concentration and labeling efficiency was confirmed using nanodrop. For S. epidermidis biofilm formation and confocal microscopy, Staphylococcus epidermidis (Winslow and Winslow) Evans ATCC 14990 was resuspended and cultured on tryptic soy broth agar plates according to ATCC recommended procedures. Single colonies were picked into 5 mL Tryptic Soy Broth (TSB) supplemented with 0.25% glucose (BD™ TSB) and bacteria were cultured overnight at 37 C with shaking (200 RPM). The overnight culture was diluted 1:100 into aerated TSB26. 400 μl (microliters) of the aerated culture was pipetted into 8-well chambered coverglass lab-tek II system suitable for confocal microscopy. Biofilms were allowed to mature for 20 hrs @37C without agitation. Mature films were washed 2×500 μl PBS to remove planktonic bacteria. The films were fixed in 4% paraformaldehyde in PBS for 30 minutes, washed 2×500 μl PBS and stained with fluorescently labeled antibodies diluted to 5 μg/ml. The labeled films were then washed 2×500 μl PBS and then stained for 10 minutes with Hoechst stain @ 10 μg/ml. The films were washed a final time and kept under PBS for imaging. […]

[2] = system: S. aureus Xen 36 cells; test: Binding to planktonic S. aureus, fluorescence microscopy; assay type: cell-based; details: labeled mAb, 20 μg/mL, fixed planktonic cells
Protocol: (§1) TG10 binding was evaluated in the PNAG producing strains of S. aureus ATCC 29213 and Xen 36 following overnight culturing with shaking in TSB and TB, respectively. The cells were pelleted, fixed in 4% paraformaldehyde and coated on glass chips. The plated cells were extensively washed followed by incubation with 488-labeled TG10 or 488-labeled F598 prior fluorescent microscopy. For evaluating TG10 and F598 binding with S. aureus, S. aureus […] and Xen 36 were grown in TSB and LB overnight, respectively. Cells were pelleted and fixed in 4% paraformaldehyde. Cells were calibrated to OD 0.5. 100 μl suspension were used for each sample. Each sample were pelleted and resuspended in 20 μg/mL mAb TG10, F598 or both. After shaking for 2 hours under ambient temperature, cells were pelleted, washed and transferred to glass chips and allowed to air dry. A cover slide was mounted via anti-fade media.

[3] = system: S. aureus ATCC 29213 cells; test: as above; assay type: cell-based; details: labeled mAb, 20 μg/mL, fixed planktonic cells
Protocol: as §1

[4] = biological target: PNAG 0 (fully deacetylated glucosamine pentasaccharide conjugate); test: Glycan microarray binding / apparent KD; details: PNAG 0 conjugate on the microarray
Protocol: (§2) Neoglycoprotein (NGP) microarray fabrication was performed as follows. Several NGP microarrays were constructed as previously described. Two large arrays (8 duplicate arrays per slide) composed of 815 and 870 neoglycoproteins, glycoproteins, glycopeptide conjugates, and controls were constructed and used for the experiments in this report. Additionally, a PNAG-focused array (16 duplicates per slide) with 49 array components was fabricated and used to determine apparent KD values. Array component parent stocks were diluted to 125-200 μg/mL into print buffer (1×PBS buffer with 2.5% (v/v) glycerol, 0.0005% (v/v) Triton-X 100, 0.0005 μg/mL soluble print dye 0.05 μg/mL Atto 532 (Sigma 06699). Formulated components were printed in duplicate onto 2D-Epoxy functionalized glass slides (Poly-An #104-00-221) or SuperEpoxy 2 microarray slides (ArrayIt) using an Arrayit NanoPrint LM60 arrayer at 60% humidity. Following the print, slides were scanned in a microarray fluorescence scanner (Innopsys, InnoScan 1100 AL) to validate that array components were successfully deposited onto the slide surface. Binding profiles for a representative set of lectins and antibodies were used as QC for each printed microarray batch. The printed NGP microarrays were stored under vacuum at −20° C.
Antibody selectivity and apparent KD were determined using a NGP microarray. A pre-assay scan was performed to control for missing features. Selectivity and affinity of most mAbs were measured on the full array. A focused array was used to acquire an apparent KD measurement. A slide module (8 well for full array and 16-well for focused array) was mounted onto each slide and blocking buffer (3% BSA in PBS, pH 7.4) was applied to each well of the array. Blocking was performed overnight at 4° C. mAbs were serial diluted in binding buffer (1% BSA in PBST, pH 7.4). Following the block, wells were washed 4× with wash buffer (PBST, PBS with 0.05% tween-20). Primary mAb incubation was performed for 2.5 hours at 37° C. The wells were washed 5× with wash buffer. A CY3-labeled secondary antibody specific for the Fc portion of human IgG was diluted 500 fold into binding buffer and added to each array well (Jackson ImmunoResearch, 109-165-098). Secondary mAb incubation was performed for 1.5 hours at 37° C. Wells were washed 5× with wash buffer. Slides were removed from the slide module and submerged in wash buffer for 5 minutes. Washed slides were dried by centrifugation @ 1000×g in a centrifuge quipped with a swing bucket rotor. Fluorescent scans were obtained at multiple PMT values to maximize dynamic range. Raw data was analyzed using GenePix 7.0 software as previously described. Selectivity profiles and apparent KD curves were plotted in excel and Graphpad Prism. Apparent Kos were determined using one-site specific binding algorithm in Graphpad Prism.

[5] = system: S. aureus ATCC 29213; test: Passive immunization, S. aureus lethal dose challenge in a murine model; assay type: in vivo, Balb/C mice; details: 200 μg mAb intraperitoneally one hour before 200 million cfu via tail vein
Protocol: An in vivo study was performed to evaluate the prophylactic efficacy of TG10 against a S. aureus lethal dose challenge in a murine model of infection. TG10 and F598 were evaluated as monotherapies and as a mAb cocktail. […] The combination provided 90% survival.
Balb/C mice aged 12 weeks (n=10/group) were passively immunized with 200 μg F598, 200μ g TG10, or 100μ g F598+100μ g TG10 in 100 μl PBS intraperitoneally. 100 μl PBS was injected intraperitoneally in the negative control group (n=5). One hour later, 200 million cfu S. aureus ATCC 29213 cells were administrated via tail vein. Mice condition was monitored. A mouse unable to move or which lost more than 20% body mass was euthanized. Survival was better in all three groups when compared to the PBS control arm.

[6] = biological target: PNAG 16 (glucosamine tetrasaccharide with an N-acetyl glucosamine at the terminal end); test: Glycan microarray apparent KD; assay type: binding; details: PNAG 16 conjugate on the microarray
Protocol: as §2, with “Binding profiles for a representative set of lectins and antibodies were used as QC for each printed microarray batch. The printed NGP microarrays were stored under vacuum at −20° C.” left out
(§3) Antibody selectivity and apparent KD were determined using a NGP microarray. […] Selectivity and affinity of most mAbs were measured on the full array. […] Raw data was analyzed using GenePix 7.0 software as previously described. […]

[7] = biological target: PNAG 1 (glucosamine tetrasaccharide with an N-acetyl glucosamine at the reducing end); test: Glycan microarray apparent KD; assay type: binding; details: PNAG 1 conjugate on the microarray
Protocol: as §2, with “Binding profiles for a representative set of lectins and antibodies were used as QC for each printed microarray batch. The printed NGP microarrays were stored under vacuum at −20° C.” left out
as §3

[8] = system: Staphylococcus epidermidis (ATCC 35984) suspension culture; test: Labeled antibody incubation with suspension cultures of microorganisms; assay type: cell-based; details: Alexa Fluor 488 labeled TG10; data not shown
[9] = system: PNAG conjugates on the array (dPNAG, PNAG and intermediate levels of deacetylation); test: Neoglycoprotein (glycan) microarray binding, 816-component array

B1: TG10: Antibody, HC SEQ ID NO: 3, LC SEQ ID NO: 12; primer mutations in ADI-45379 reverted to germline (antibody, V domains shown)
VH: EVQLVESGGGLVQPGGSLRLSCAVSGFPFSSYWMSWVRQAPGKGLEWVANIKEDGSEKYYVDSVKGRFTISRDNAKNSLYLQMNSLRAEDTAVYYCATDPDVGLSDSWGQGTLVTVSS
VL: EIVLTQSPGTLSLSPGDRATHSCRASQSVSRSYLAWYQQKPGQTPRLFIYGASNRATGIPDRFSGSGSGTYFTLTISRLEPEDFAVYYCQQYDSAPDTFGQGTRLEIK
modifications: TG10 Heavy Chain Variable Region; TG10 Light Chain Variable Region
notes: primer mutations in ADI-45379 reverted to germline
localization of labeled antibody within the biofilm [1]: isolated to core cells within the microcolonies | binding to cells [2]: bound | binding to cells [3]: bound | Kd [4]: 8.3 nM | apparent KD ([4]; given in mass concentration): 1.25 µg/mL | survival compared to the PBS control group [5]: increased survival | Kd [6]: 19 nM | Kd [7]: 11.5 nM | fluorescent microscopy of spun-down culture [8]: strong fluorescent signal | selectivity among PNAG glycoconjugates on the array ([9]; 816-component array): excellent selectivity for the highly deacetylated PNAG conjugates PNAG 0 and PNAG 1 | PNAG Binding on Array ([9]; ability to bind both dPNAG and PNAG and intermediate levels of deacetylation): Yes

Source: patent publication US20260015434A1, “ANTIBODY MATERIALS AND METHODS TARGETING MICROBIAL POLYSACCHARIDES” (priority 2022, published 2026)
